According to doi:10.1101/2024.06.06.597711:

T1: CtTrl1-LIG K148N (Chaetomium thermophilum (syn. …, UniProt G0S6G2 1-414, K148N))
T1 sequence: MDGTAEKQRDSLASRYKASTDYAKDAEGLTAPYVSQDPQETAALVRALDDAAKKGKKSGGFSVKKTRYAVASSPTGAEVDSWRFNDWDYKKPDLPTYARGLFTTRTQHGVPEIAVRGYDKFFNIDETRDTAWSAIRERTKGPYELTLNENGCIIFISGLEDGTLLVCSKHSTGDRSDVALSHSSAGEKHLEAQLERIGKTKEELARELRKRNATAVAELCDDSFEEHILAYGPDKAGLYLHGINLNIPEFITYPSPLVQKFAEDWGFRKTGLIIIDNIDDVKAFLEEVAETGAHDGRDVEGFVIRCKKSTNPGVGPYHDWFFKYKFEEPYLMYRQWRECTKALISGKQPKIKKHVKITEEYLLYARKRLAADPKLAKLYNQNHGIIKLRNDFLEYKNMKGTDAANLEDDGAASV

T2: CtTrl1-LIG WT (tRNA ligase LIG domain) (Chaetomium thermophilum (syn. …, UniProt G0S6G2 1-414))
T2 sequence: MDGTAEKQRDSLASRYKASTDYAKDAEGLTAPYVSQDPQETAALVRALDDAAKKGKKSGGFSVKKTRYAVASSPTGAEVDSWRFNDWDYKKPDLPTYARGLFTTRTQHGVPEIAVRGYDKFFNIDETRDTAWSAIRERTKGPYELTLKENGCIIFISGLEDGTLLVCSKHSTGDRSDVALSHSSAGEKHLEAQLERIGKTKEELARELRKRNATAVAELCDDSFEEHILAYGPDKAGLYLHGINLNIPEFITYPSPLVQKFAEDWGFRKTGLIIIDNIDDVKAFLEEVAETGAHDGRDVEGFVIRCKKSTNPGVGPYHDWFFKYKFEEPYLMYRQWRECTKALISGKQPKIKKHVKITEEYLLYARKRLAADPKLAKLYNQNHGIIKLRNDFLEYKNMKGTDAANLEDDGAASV

B1: ASL-4U (structured_RNA)
RNA: AUCUGGAUUUUGCCAGACUGAAG
modifications: 5'-phosphate; terminal phosphate at 3' end (ordered as [Phos]; 2'-P form in the EMSA not stated)
B2: sctRNAPhe-3'exon-7nt (dsRNA)
RNA 1: AUCUGGA
RNA 2: AUCUGGA
modifications: 5'-phosphate; one strand 5'-adenylylated (AppRNA) in the crystal

What was measured:
CtTrl1-LIG K148N = molecular target: T1, CtTrl1-LIG K148N; assay: EMSA
[1] = molecular target: T2, CtTrl1-LIG WT (tRNA ligase LIG domain); assay: EMSA
[2] = molecular target: T2, CtTrl1-LIG WT (tRNA ligase LIG domain); assay: X-ray crystallography

Binder	binding result (CtTrl1-LIG K148N)	binding result [1]	binding result [2]
B1	binds	binds	–
B2	–	–	binds
